From patent US20120100139A1 (APTEVO RESEARCH AND DEVELOPMENT, published 2012)

T1: Murine CD86-mIgG (R&D Systems, Inc) (murine, UniProt P42082 24-244, limits assumed)
T1 construct: also called muCD86
T1 sequence (looked up): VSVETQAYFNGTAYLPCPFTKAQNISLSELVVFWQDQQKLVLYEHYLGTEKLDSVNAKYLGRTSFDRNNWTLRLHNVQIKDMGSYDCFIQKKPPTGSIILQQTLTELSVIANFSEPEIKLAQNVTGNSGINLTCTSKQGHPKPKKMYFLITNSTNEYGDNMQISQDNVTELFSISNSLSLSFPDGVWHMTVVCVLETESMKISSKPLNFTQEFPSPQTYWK

T2: CD80-mIg (Ancell Catalog #510-020) (UniProt P33681 35-242)
T2 construct: Bought reagent; also called CD80-mIgG; sCD80
T2 sequence (looked up): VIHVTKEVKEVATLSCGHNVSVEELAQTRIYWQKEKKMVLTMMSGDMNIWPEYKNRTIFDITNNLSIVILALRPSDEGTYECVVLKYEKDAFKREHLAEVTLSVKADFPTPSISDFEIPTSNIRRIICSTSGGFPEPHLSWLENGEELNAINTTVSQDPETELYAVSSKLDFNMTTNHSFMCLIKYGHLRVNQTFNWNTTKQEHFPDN

T3: CD86-mIgG (Ancell, Inc) (UniProt P42081 24-247, limits assumed)
T3 construct: Bought reagent
T3 sequence (looked up): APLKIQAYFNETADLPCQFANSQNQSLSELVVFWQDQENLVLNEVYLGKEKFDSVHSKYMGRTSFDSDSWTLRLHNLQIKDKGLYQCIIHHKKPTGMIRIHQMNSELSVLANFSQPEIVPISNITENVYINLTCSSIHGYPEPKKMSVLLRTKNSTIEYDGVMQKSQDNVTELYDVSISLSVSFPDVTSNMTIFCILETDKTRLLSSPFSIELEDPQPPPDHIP

T4: CD86 on cells (WIL2-S human B-lymphoblastoid cells; HuCD86-2A2 CHO cells expressing CD86) (human, UniProt P42081 24-329)
T4 construct: whole, on cells; also called cell surface CD86
T4 sequence (looked up): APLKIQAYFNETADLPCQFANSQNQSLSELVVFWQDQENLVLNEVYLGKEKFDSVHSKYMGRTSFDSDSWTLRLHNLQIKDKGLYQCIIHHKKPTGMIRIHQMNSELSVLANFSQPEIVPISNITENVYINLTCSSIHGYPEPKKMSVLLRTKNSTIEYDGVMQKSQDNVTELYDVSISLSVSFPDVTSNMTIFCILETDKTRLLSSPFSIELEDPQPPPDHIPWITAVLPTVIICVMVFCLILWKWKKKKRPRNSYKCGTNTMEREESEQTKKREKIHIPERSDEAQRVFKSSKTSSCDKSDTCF


Columns and labels:
[1] = target: T1, Murine CD86-mIgG (R&D Systems, Inc); test: SPR (BIAcore T100), murine CD86-mIgG immobilized on CM5; bivalent analyte model, second site
Experimental: (§1) SPR measurements were performed on a BIAcore™ T100 SPR (Pharmacia Biotech AB, Uppsala) using HBS-EP+ (GE Healthcare) as a running buffer. Murine CD86-mIgG (25 μg/mL in 10 mM sodium acetate, pH 4.0, R&D Systems, Inc) was directly immobilized onto a CM5 chip using standard amine coupling chemistry (Biacore Amine Coupling Kit, GE Healthcare), with final immobilization levels of 150, 493, and 746 Ru. CTLA4-containing constructs were injected for 150 seconds, at a flow rate of 10 μl/min, in a series of concentrations from 4 nM to 8 μM. Dissociation was monitored for 600 seconds (CTLA4 constructs) or 1200 seconds (GL1 constructs), and the surface was regenerated by injecting 10 mM glycine, pH 1.7, for 60 seconds. […] Data were analyzed using BiaEvaluation for the T100 software (version 2.0.1, GE Healthcare).

[2] = target: T1, Murine CD86-mIgG (R&D Systems, Inc); test: SPR (BIAcore T100), murine CD86-mIgG immobilized on CM5; steady-state equilibrium fit
Experimental: as §1

[3] = target: T1, Murine CD86-mIgG (R&D Systems, Inc); test: SPR (BIAcore T100), murine CD86-mIgG immobilized on CM5; bivalent analyte model, first site
Experimental: as §1

[4] = target: T1, Murine CD86-mIgG (R&D Systems, Inc); test: SPR (BIAcore T100), murine CD86-mIgG immobilized on CM5; steady-state equilibrium, multiple Rmax fit
Experimental: as §1

[5] = target: T2, CD80-mIg (Ancell Catalog #510-020); test: SPR (BIAcore T100), CD80-mIgG immobilized on CM5; bivalent analyte model, first site
Experimental: (§2) Surface plasmon resonance (SPR) measurements were performed on a BIAcore™ T100 SPR (Pharmacia Biotech AB, Uppsala) using HBS-EP+ (GE Healthcare) as a running buffer. […] CTLA4-containing constructs were injected for 150 seconds, at a flow rate of 10 μl/min, in a series of concentrations from 5 nM to 1 μM. Dissociation was monitored for 600 seconds, and the surface was regenerated by injecting 50 mM sodium citrate, 500 mM sodium chloride, pH 4.0, for 60 seconds. […] Data were analyzed using BiaEvaluation for the T100 software (version 2.0.1, GE Healthcare).

[6] = target: T2, CD80-mIg (Ancell Catalog #510-020); test: SPR (BIAcore T100), CD80-mIgG immobilized on CM5; steady-state equilibrium fit
Experimental: as §2

[7] = target: T2, CD80-mIg (Ancell Catalog #510-020); test: SPR (BIAcore T100), CD80-mIgG immobilized on CM5; bivalent analyte model, second site
Experimental: as §2

[8] = target: T3, CD86-mIgG (Ancell, Inc); test: SPR (BIAcore T100), CD86-mIgG immobilized on CM5; bivalent analyte model, first site
Experimental: (§3) SPR measurements were performed on a BIAcore™ T100 SPR (Pharmacia Biotech AB, Uppsala) using HBS-EP+ (GE Healthcare) as a running buffer. […] CTLA4-containing constructs were injected for 150 seconds, at a flow rate of 10 μl/min, in a series of concentrations from 4 nM to 10 μM. Dissociation was monitored for 600 seconds, and the surface was either regenerated by injecting 50 mM sodium citrate, 500 mM sodium chloride, pH 5.0, for 60 seconds (wild type CTLA4) or 10 mM glycine, pH 1.7 (L104E A29Y CTLA4). […] Data were analyzed using BiaEvaluation for the T100 software (version 2.0.1, GE Healthcare).

[9] = target: T3, CD86-mIgG (Ancell, Inc); test: SPR (BIAcore T100), CD86-mIgG immobilized on CM5; steady-state equilibrium fit
Experimental: as §3
SPR measurements were performed as listed above, with the following exceptions: HBS-P+ (GE Healthcare) was used as a running buffer; dissociation was monitored for 1200 seconds; and the surface was regenerated by injecting 10 mM glycine, pH 1.7, for 60 seconds.

[10] = target: T4, CD86 on cells (WIL2-S human …); test: flow cytometry, supernatants of transfected HEK293 cells on HuCD86-2A2 cells
Experimental: Briefly, WIL2-S or HuCD86-2A2 cells were incubated with test molecules containing a CD86 antagonist at concentrations ranging from saturation to background levels. […] After the incubation, cells were washed and a fluorophore (R-phycoerythrin) tagged F(Ab′)₂ antibody specific for the Fc portion of the xceptor molecule, IL10R-Ig fusion protein, or anti-IL10 antibody. The tagged cells were then passed through a flow cytometer and data was analyzed by plotting median fluorescence intensity of each sample.
In another experiment, different versions of humanized FUN1 SMIPs were tested for CD86 binding. Supernatants of HEK293 cells transiently transfected with the six different versions of humanized FUN1 SMIPs were examined for CD86 binding using HuCD86-2A2 cells.

Second Site ka [1] [s⁻¹]	Second Site kd [1] [s⁻¹]	koff [3] [s⁻¹]	kon [3] [M⁻¹ s⁻¹]	binding result [10]	also measured	Binder
0.0271	0.088	4.4e-05	67300	–	Kd [2]: 95.1 nM	IL10::GL1 xceptor (Fc fusion) SPGQGTQSENSCTHFPGNLPNMLRDLRDAFSRVKTFFQMKDQLDNLLLKESLLEDFKGYLGCQALSEMIQFYLEEVMPQAENQDPDIKAHVNSLGENLKTLRLRLRRCHRFLPCENKSKAVEQVKNAFNKLQEKGIYKAMSEFDIFINYIEAYITMKIRNLEPKSSDKTHTCPPCPAPEAAGAPSVFLFPPKPKDTLMISRTPEVTCVVVDVSHEDPEVKFNWYVDGVEVHNAKTKPREEQYNSTYRVVSVLTVLHQDWLNGKAYACAVSNKALPAPIEKTISKAKGQPREPQVYTLPPSRDELTKNQVSLTCLVKGFYPSDIAVEWESNGQPENNYKTTPPVLDSDGSFFLYSKLTVDKSRWQQGNVFSCSVMHEALHNHYTQKSLSLSPGNSLFNQEVQIPLTESYSPNSEVQLVESAGGLVQPGRSLKLSCAASGFTFSDYYMAWVRQAPTKGLEWVATISHDGSSTYYRDSVKGRFTISRDNAKTILYLQMDSLRSEDTATYFCARQNIMDYWGQGVMVTVSSGGGGSGGGGSGGGGSGGGGSDIVMTQTPSSQAVSAGEKVTMSCKSSQSLLYSRDQSNYLAWYQQKPGQSPKLLIYLASTRESGVPDRFIGSGSGTDFTLTISSVQAEDLADYYCQQHYNYPLTFGSGTKLEIK
0.0728	0.168	0.0787	27800	–	Kd [4]: 920 nM; koff [5]: 0.00373 s⁻¹; kon [5]: 155000 M⁻¹ s⁻¹; Kd [6]: 13.3 nM; Second Site ka [7]: 0.00102 s⁻¹; Second Site kd [7]: 0.00332 s⁻¹; koff [8]: 0.0102 s⁻¹; kon [8]: 84700 M⁻¹ s⁻¹; Kd [9]: 772 nM	CTLA4-Fc fusion containing the L104E A29Y mutations, analogous to belatacept (Fc fusion, the mutations are in the entry) MHVAQPAVVLASSRGIASFVCEYASPGKYTEVRVTVLRQADSQVTEVCAATYMMGNELTFLDDSICTGTSSGNQVNLTIQGLRAMDTGLYICKVELMYPPPYYEGIGNGTQIYVIDPEPCPDSDLEPKSSDKTHTCPPCPAPEAAGAPSVFLFPPKPKDTLMISRTPEVTCVVVDVSHEDPEVKFNWYVDGVEVHNAKTKPREEQYNSTYRVVSVLTVLHQDWLNGKAYACAVSNKALPAPIEKTISKAKGQPREPQVYTLPPSRDELTKNQVSLTCLVKGFYPSDIAVEWESNGQPENNYKTTPPVLDSDGSFFLYSKLTVDKSRWQQGNVFSCSVMHEALHNHYTQKSLSLSPG
–	–	–	–	no binding	–	FUN1-12 humanized FUN1 SMIP (Fc fusion) EVQLVQSGAEVKKPGATVKISCKVSGYTFTDYNMNWVQQAPGKGLEWMGNIDPYYGGTSYNQKFKGRVTITADTSTDTAYMELSSLRSEDTAVYYCATWDYRYDDGRAYYVMDFWGQGTTVTVSSGGGGSGGGGSGGGGSGGGGSDIQMTQSPSSLSASVGDRVTITCKSSQSVLYSSNQKNYLAWYQQKPGKVPKLLIYWASTRESGVPSRFSGSGSGTDFTLTISSLQPEDVATYYCHQYLYSWTFGQGTKLEIKRLEPKSSDKTHTCPPCPAPEAAGAPSVFLFPPKPKDTLMISRTPEVTCVVVDVSHEDPEVKFNWYVDGVEVHNAKTKPREEQYNSTYRVVSVLTVLHQDWLNGKAYACAVSNKALPAPIEKTISKAKGQPREPQVYTLPPSRDELTKNQVSLTCLVKGFYPSDIAVEWESNGQPENNYKTTPPVLDSDGSFFLYSKLTVDKSRWQQGNVFSCSVMHEALHNHYTQKSLSLSPG
–	–	–	–	no binding	–	FUN1-32 humanized FUN1 SMIP (Fc fusion, SMIP: scFv-hinge-Fc single chain) QVQLVESGGGLVKPGGSLRLSCAASGFTFSDYNMNWIRQAPGKGLEWVSNIDPYYGGTSYNQKFKGRFTISRDNAKNSLYLQMNSLRAEDTAVYYCARWDYRYDDGRAYYVMDFWGQGTTVTVSSGGGGSGGGGSGGGGSGGGGSDIQMTQSPSSLSASVGDRVTITCKSSQSVLYSSNQKNYLAWYQQKPGKVPKLLIYWASTRESGVPSRFSGSGSGTDFTLTISSLQPEDVATYYCHQYLYSWTFGQGTKLEIKRLEPKSSDKTHTCPPCPAPEAAGAPSVFLFPPKPKDTLMISRTPEVTCVVVDVSHEDPEVKFNWYVDGVEVHNAKTKPREEQYNSTYRVVSVLTVLHQDWLNGKAYACAVSNKALPAPIEKTISKAKGQPREPQVYTLPPSRDELTKNQVSLTCLVKGFYPSDIAVEWESNGQPENNYKTTPPVLDSDGSFFLYSKLTVDKSRWQQGNVFSCSVMHEALHNHYTQKSLSLSPG
–	–	–	–	no binding	–	FUN1-31 humanized FUN1 SMIP (Fc fusion) QVQLVESGGGLVKPGGSLRLSCAASGFTFSDYNMNWIRQAPGKGLEWVSNIDPYYGGTSYNQKFKGRFTISRDNAKNSLYLQMNSLRAEDTAVYYCARWDYRYDDGRAYYVMDFWGQGTTVTVSSGGGGSGGGGSGGGGSGGGGSDIVMTQSPDSLAVSLGERATINCKSSQSVLYSSNQKNYLAWYQQKPGQPPKLLIYWASTRESGVPDRFSGSGSGTDFTLTISSLQAEDVAVYYCHQYLYSWTFGQGTKLEIKRLEPKSSDKTHTCPPCPAPEAAGAPSVFLFPPKPKDTLMISRTPEVTCVVVDVSHEDPEVKFNWYVDGVEVHNAKTKPREEQYNSTYRVVSVLTVLHQDWLNGKAYACAVSNKALPAPIEKTISKAKGQPREPQVYTLPPSRDELTKNQVSLTCLVKGFYPSDIAVEWESNGQPENNYKTTPPVLDSDGSFFLYSKLTVDKSRWQQGNVFSCSVMHEALHNHYTQKSLSLSPG
